Data: article PMC12711580, “Florigen activation complex forms via multifaceted assembly in Arabidopsis” (Nature, 2025)

B1: GRF7 (14-3-3ν), recombinant (natural protein, Arabidopsis thaliana, UniProt Q96300 1-265, looked up)
chain: MSSSREENVYLAKLAEQAERYEEMVEFMEKVAKTVDTDELTVEERNLLSVAYKNVIGARRASWRIISSIEQKEESRGNDDHVSIIKDYRGKIETELSKICDGILNLLDSHLVPTASLAESKVFYLKMKGDYHRYLAEFKTGAERKEAAESTLVAYKSAQDIALADLAPTHPIRLGLALNFSVFYYEILNSPDRACSLAKQAFDEAISELDTLGEESYKDSTLIMQLLRDNLTLWNSDINDEAGGDEIKEASKHEPEEGKPAETGQ
notes: GRF7 (14-3-3ν), Arabidopsis thaliana; cloned into pMAL-c5X-His or a modified pMAL-c5X vector; also called GRF7-6His; source: E. coli, purified (Ni-NTA, size-exclusion chromatography)

Legend:
[1] = target: T1, MBP–FD(T282E), maltose-binding protein-fused phospho-mimic mutant FD (Arabidopsis thaliana, UniProt Q84JK2 2-285, T282E); assay: SEC; gel filtration of mixed purified proteins without DNA, fractions analysed on gel; settings: both partners purified
T1 construct: FD, bZIP transcription factor, Arabidopsis thaliana; residues 2-285; codon-optimised for E. coli; also called MBP-FD^(2–285 (T282E)); source: E. coli, purified (Ni-NTA, size-exclusion chromatography); not shown: MBP, N-terminal, kept
T1 sequence (looked up): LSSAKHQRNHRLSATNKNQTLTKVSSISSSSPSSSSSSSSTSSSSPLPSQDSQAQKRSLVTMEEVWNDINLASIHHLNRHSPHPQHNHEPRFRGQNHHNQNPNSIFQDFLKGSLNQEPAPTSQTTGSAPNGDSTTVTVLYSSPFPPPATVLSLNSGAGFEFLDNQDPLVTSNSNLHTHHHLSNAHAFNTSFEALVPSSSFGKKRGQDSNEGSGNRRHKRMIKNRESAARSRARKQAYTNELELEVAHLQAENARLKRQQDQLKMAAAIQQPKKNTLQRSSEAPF

[2] = target: B1; assay: SEC-MALS; MBP–FDc(T282E) or its mutants with GRF7; 25 mM Tris-HCl pH 8.0, 160 mM NaCl, 2% glycerol; Superdex 200; settings: both partners purified
[3] = target: the molecule itself; assay: SEC-MALS; MBP–FDc(T282E) alone at low concentration; 25 mM Tris-HCl pH 8.0, 160 mM NaCl, 2% glycerol; Superdex 200
[4] = target: the molecule itself; assay: SEC-MALS; MBP–FDc(T282E) or its mutants with GRF7; 25 mM Tris-HCl pH 8.0, 160 mM NaCl, 2% glycerol; Superdex 200

## B1
[1]
  binding result: binds

B2: MBP–FDc(T282E), N-terminal MBP-fused, truncated FD (amino acids 215–285) (domain or fragment, Arabidopsis thaliana, UniProt Q84JK2 215-285, looked up)
chain: NRRHKRMIKNRESAARSRARKQAYTNELELEVAHLQAENARLKRQQDQLKMAAAIQQPKKNTLQRSSEAPF
notes: FD, Arabidopsis thaliana; also called MBP-FDc^(215–285 (T282E)); source: E. coli, purified; not shown: MBP, N-terminal, kept
[2]
  binding result: binds
[3]
  stoichiometry N: 2

B3: MBP–FDc(T282E) Mu3 (L242A) (domain or fragment, Arabidopsis thaliana, UniProt Q84JK2 215-285, looked up)
chain: NRRHKRMIKNRESAARSRARKQAYTNEAELEVAHLQAENARLKRQQDQLKMAAAIQQPKKNTLQRSSEAPF
notes: FD, Arabidopsis thaliana; amino acids 215–285; L242A is printed for Mu3 only in the name of the transgene gFD::3HA-3Flag-FD^Mu3_L242A; source: E. coli, purified; not shown: MBP, N-terminal, kept
[2]
  stoichiometry N: 1 copy of FDc(T282E) per GRF7 dimer

B4: MBP–FDc(T282E) Mu2 (Y238A,E243A) (domain or fragment, Arabidopsis thaliana, UniProt Q84JK2 215-285, looked up)
chain: NRRHKRMIKNRESAARSRARKQAATNELALEVAHLQAENARLKRQQDQLKMAAAIQQPKKNTLQRSSEAPF
notes: FD, Arabidopsis thaliana; amino acids 215–285; source: E. coli, purified; not shown: MBP, N-terminal, kept
[2]
  binding result: binds
[4]
  binding result: binds

B5: MBP–FDc(T282E) Mu6 (L263A) (domain or fragment, Arabidopsis thaliana, UniProt Q84JK2 215-285, looked up)
chain: NRRHKRMIKNRESAARSRARKQAYTNELELEVAHLQAENARLKRQQDQAKMAAAIQQPKKNTLQRSSEAPF
notes: as for B4
[2]
  binding result: binds
[4]
  binding result: binds
